Source: PMC11436757, “BRCA2 stabilises RAD51 and DMC1 nucleoprotein filaments through a conserved interaction mode” (Nature Communications, 2024)
Residue numbers refer to the chain shown, from its start. Numbers in names are those of the source. Entries after “also recorded” stand apart in the source; their conditions may differ. Like-named read-outs stand apart in the source and are kept apart here. No end group written: not given here.

T1: DMC1 ΔN (Homo sapiens, UniProt Q14565)
T1 construct: DMC1 ΔN (83-340) were cloned into pHAT4; His6 (TEV-cleavable) (N, cleaved yes); made in house; host or cells: E. coli BL21 (DE3)
T1 sequence (Q14565 83-340): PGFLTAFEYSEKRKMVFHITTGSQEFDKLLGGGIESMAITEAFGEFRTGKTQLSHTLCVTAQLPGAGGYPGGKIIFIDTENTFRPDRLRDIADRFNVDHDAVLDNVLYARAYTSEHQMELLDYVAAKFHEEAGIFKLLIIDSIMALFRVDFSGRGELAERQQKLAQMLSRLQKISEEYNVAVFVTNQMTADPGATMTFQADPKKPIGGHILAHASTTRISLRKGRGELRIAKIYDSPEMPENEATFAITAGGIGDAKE

B1: BRCA2 Ex14 (amino acids 2387-2420), purified (peptide, UniProt P51587 2387-2420, looked up)
chain: ATRNEKMRHLITTGRPTKVFVPPFKTKSHFHRVE
notes: human BRCA2 exon 14 PhePP region, amino acids 2387-2420; source: E. coli BL21 (DE3), purified (Ni-NTA, HiTrap Q, TEV cleavage, HiTrap SP, SEC)
B2: DMC1 ΔN loop mutant, purified (domain or fragment, human, UniProt Q14565 83-340, looked up)
chain: PGFLTAFEYSEKRKMVFHITTGSQEFDKLLGGGIESMAITEAFGEFRTGKTQLSHTLCVTAQLPIDRGGGEGKIIFIDTENTFRPDRLRDIADRFGLSGSDVLDNVLYARAYTSEHQMELLDYVAAKFHEEAGIFKLLIIDSIMALFRVDFSGRGELAERQQKLAQMLSRLQKISEEYNVAVFVTNQMTADPGATMTFQADPKKPIGGHILAHASTTRISLRKGRGELRIAKIYDSPEMPENEATFAITAGGIGDAKE
modifications: amine reactive fluorescent dye (Monolith Protein Labelling Kit BLUE-NHS) in the MST only
notes: The purification of the mutant is not described; probably as for DMC1 ΔN (His6 tag cleaved)
B3: BRCA2 Ex14-Tr peptide (amino acids 2401-2414) (peptide)
peptide: RPTKVFVPPFKTKS
notes: human BRCA2 Ex14 truncated, amino acids 2401-2414; also called truncated Ex14; source: synthetic peptide (Severn Biotech)
B4: DMC1 ΔN (amino-acids 83-340), purified (domain or fragment, human, UniProt Q14565 83-340, looked up)
chain: T1 sequence (Q14565 83-340)
modifications: amine reactive fluorescent dye (Monolith Protein Labelling Kit BLUE-NHS) in the MST only
notes: human DMC1 with its N-terminal domain deleted, amino acids 83-340; Octameric ring in the crystal and in solution; also called DMC1 core; structural core of human DMC1; source: E. coli BL21 (DE3), purified (Ni-NTA, HiTrap Q, TEV cleavage, HiTrap Q, SEC)
B5: His-DMC1 ΔN V179E mutant (domain or fragment, human, UniProt Q14565 83-340, looked up)
chain: T1 sequence (Q14565 83-340) with V97E
notes: human DMC1 ΔN (83-340) with V179E, cloned into pHAT4; His tag named on the protein in the pull-down; also called His6-DMC1 mutant; source: E. coli, in lysate (pull-down); purified for SEC-MALS (purification not described)
B6: 100-nt poly(dT) (ssDNA)
DNA: TTTTTTTTTTTTTTTTTTTTTTTTTTTTTTTTTTTTTTTTTTTTTTTTTTTTTTTTTTTTTTTTTTTTTTTTTTTTTTTTTTTTTTTTTTTTTTTTTTTT

Assays:
[1] = target: B4; experiment: MST; DMC1 ΔN or loop mutant labelled with BLUE-NHS dye, constant at 150 nM; peptide titrated in 1:1 dilutions starting from 750 µM; 10 mM HEPES pH 8.0, 150 mM NaCl, 0.05 % Tween-20; room temperature (~22 °C); affinities derived from initial fluorescence
[2] = system: RAD51-ssDNA (polydT) filaments; experiment: EMSA, protection of RAD51-ssDNA (polydT) filaments from BRC4-mediated disruption; assay type: biochemical; details: 100-nt polydT; 10-fold excess of Ex27
Description: (§1) To form nucleoprotein filaments, DMC1 and RAD51 was incubated with fluorescent 100-base ssDNA (5’-FAM- […]-3’) at the concentrations indicated in the figures for 30 minutes at 4 °C in reaction buffer. For DMC1, reaction buffer is 25 mM TEA (triethanolamine) pH 7.5, 1 mM ATP, 2 mM MgCl2, 0.1 mg/ml BSA, 2 mM DTT, 200 mM KCl. For RAD51, reaction buffer is 50 mM TEA (triethanolamine), 2 mM ATP, 0.5 mM MgCl2, 2 mM DTT. For assays requiring incomplete nucleoprotein filament assembly, the reaction buffer consisted of 50 mM TAE (tris, acetate, EDTA) pH 7.5, 2 mM ATP, 2 mM MgCl2, 2 mM DTT. In nucleoprotein formation stimulation assays or supershift experiments, BRCA2Ex14 or BRCA2Ex14-AAA were added for a further 30 min at 4 °C. […] Glycerol was added at a final concentration of 3%, and samples were analysed by electrophoresis on a 1% (w/v) (for DMC1) or 0.66% (w/v) (for RAD51) agarose gel in 0.5x TAE pH 8.0 at 20–40 V for ~4 h at 4 °C. DNA was detected by FAM using a Typhoon^TM FLA 9500 (GE Healthcare), with 473 nm laser at excitation wavelength 490 nm and emission wavelength 520 nm, using the LPB filter and a PMT voltage of 500 V. To analyse RAD51 nucleoprotein filaments assembled upon 100-base poly(dT) ssDNA, gels were stained post-run using SYBR^TM Gold Nucleic Acid Gel Stain (Invitrogen) and detected using a Typhoon^TM FLA 9500 (GE Healthcare).

DMC1-ssDNA filaments [3] = experiment: EMSA, protection of DMC1-ssDNA filaments from BRC4-mediated disruption; assay type: biochemical, human; details: TEA pH 7.5 + KCl; Ex14 10-fold stoichiometric excess (110 μM); 10-fold excess of BRC4
Description: Finally, we tested whether binding of BRCA2 Ex14 protects DMC1-ssDNA nucleoprotein filaments from BRC4-mediated disruption (Fig. 3c). […] Further, whilst the core PhePP interaction site is sufficient to stimulate DMC1-ssDNA nucleoprotein filament formation, surrounding amino-acids that are present within Ex14 (but not Ex14-Tr) are necessary to super-shift filaments and confer protection from BRC4-mediated disruption.
as §1

DMC1 ΔN [4] = target: T1, DMC1 ΔN; experiment: Microscale thermophoresis (MST), BRCA2 peptides and DMC1 ΔN; assay type: binding; details: labelled DMC1 ΔN 150 nM
Description: DMC1 ΔN and DMC1 ΔN loop mutant were labelled in 10 mM HEPES pH 8.0, 150 mM NaCl with an amine reactive fluorescent dye (MonolithTM Protein Labelling Kit BLUE-NHS, Nanotemper GmbH). A serial dilution of titrant (peptide) was prepared in 10 mM HEPES pH 8.0, 150 mM NaCl, 0.05 % Tween-20. The concentration of labelled DMC1 ΔN or DMC1 ΔN loop mutant were constant at 150 nM and the concentration of the interacting peptide was titrated in 1:1 dilutions starting from 750 µM. An equal volume (10 µl) of the serial dilution and of the diluted labelled DMC1 were mixed and loaded in glass capillaries (MonolithTM NT.115 MST Premium Coated Capillaries, Nanotemper GmbH). The initial fluorescence and the thermophoretic mobility were measured on a Monolith NT.115 system (NanoTemper Technologies). The excitation power was 45 % and MST power was 60 % at room temperature (~22 °C). Laser on and off times were set at 5 and 30 seconds, respectively. Data analysis was performed with NT Affinity Analysis software.
As a change in initial fluorescence was detected, SDS denaturation (SD) tests were performed according to the manufacturer’s instructions to determine whether these changes were ligand-induced and whether the data could therefore be used to derive affinity measurements. Briefly, 7 µl of the samples containing the three highest and three lowest concentrations of peptide were mixed with 7 µl of denaturation buffer (4 % SDS, 40 mM DTT). After incubating each for 5 minutes at 95 °C to denature the proteins and subject to brief centrifugation, the samples were loaded onto Premium Coated Capillaries and their initial fluorescence measurements recorded. […] Initial fluorescence readings were used to derive binding affinities.

[5] = system: DMC1 V179E-ssDNA filaments; experiment: EMSA, super-shift of filaments formed using DMC1 V179E; assay type: biochemical, human
Description: as §1

DMC1-ssDNA filaments [6] = experiment: EMSA, stimulation of DMC1-ssDNA filament formation (TAE pH 7.5); assay type: biochemical, human
Source text: (§2) What is the function of the BRCA2 Ex14-DMC1 interaction? We used electrophoretic mobility shift assays (EMSAs) to determine the impact of BRCA2-binding on DMC1 nucleoprotein filaments. We used two different conditions for nucleoprotein filament assembly. Firstly, a TAE (tris, acetate, EDTA; pH 7.5) buffer that was previously used for RAD51-ssDNA filaments, in which DMC1-ssDNA filaments were partially formed at the canonical ratio of three nucleotides to one protomer (Fig. 3a). Secondly, a TEA (triethanolamine; pH 7.5) + KCl buffer based on previous DMC1 studies[36]–[38], in which DMC1-ssDNA filament formation was more complete at the canonical ratio (Fig. 3b). […] This was noticeable using Ex14 in equimolar amounts (11 μM), and became substantial at a 5-fold stoichiometric excess (55 μM) (Fig. 3b). As the KD of the DMC1-Ex14 interaction is approximately 30 μM (Fig. 2a), the requirement for a stoichiometric excess is likely due to binding being favoured at Ex14 concentrations above the KD.
as §1

DMC1 ΔN [7] = target: T1, DMC1 ΔN; experiment: Amylose pull-down of DMC1 ΔN with MBP-BRCA2 fusions; assay type: binding; details: recombinant co-expression with MBP-BRCA2 fusion
Source text: For affinity pulldown experiments, MBP-fusions of BRCA2 fragments (Ex14, amino-acids 2387-2420, Ex14-Tr, amino acids 2401-2414, Ex27, amino acids 3270-3315, BRC4, amino acids 1519-1551) were cloned into pMAT11 vectors[54] and co-expressed with DMC1 ΔN, DMC1 ΔN loop mutant (in which DMC1 amino acids 147-GAGGYPG-153 and 178-NVDHDA-183 were replaced by the cognate sequences of RAD51 148-IDRGGGE-154 and 179-GLSGSD-184), RAD51 ΔN, RAD51 ΔN loop mutant (the reverse switch of DMC1 ΔN loop mutant), and RAD51. MBP-fusions and complexes were purified through amylose affinity chromatography.

DMC1-ssDNA filaments [8] = experiment: EMSA, super-shift of DMC1-ssDNA filaments (TEA pH 7.5 + KCl); assay type: biochemical, human; details: 100-nt random ssDNA, 4 °C
Source text: as §2, §1

RAD51-ssDNA filaments = experiment: EMSA, protection of RAD51-ssDNA filaments from BRC4-mediated disruption (random sequence ssDNA); assay type: biochemical; details: 100-nt random ssDNA; 10-fold excess of Ex27
Description: as §1

[9] = target: the molecule itself; experiment: SEC-MALS; Superdex 200 Increase 10/300 GL, 20 mM Tris pH 8.0, 150 mM KCl, 2 mM DTT; the loop mutant also by SEC-SAXS
[10] = target: the molecule itself; experiment: crystal structure; DMC1 ΔN crystals soaked overnight with 3.5 mM BRCA2 Ex14-Tr peptide; anisotropic resolution limits 3.4-5.8 Å; peptide built with the guide of an AlphaFold2 model
RAD51;BRCA2 Ex27 = RAD51;BRCA2 Ex27 (Homo sapiens?;Homo sapiens?, UniProt Q06609;P51587 1-339;3270-3315, |); experiment: EMSA, BRC4 protection; 10-fold excess Ex27 + BRC4, complete protection; largely protected at 33 µM Ex27; DMC1: 25 mM TEA (triethanolamine) pH 7.5, 200 mM KCl, 1 mM ATP, 2 mM MgCl2, 0.1 mg/ml BSA, 2 mM DTT, or 50 mM TAE pH 7.5, 2 mM ATP, 2 mM MgCl2, 2 mM DTT; RAD51: 50 mM TEA, 2 mM ATP, 0.5 mM MgCl2, 2 mM DTT; all 4 C, agarose gel in 0.5x TAE; details: tags: ;; label: none (SYBR Gold post-stain); single strand

## BRCA2 Ex27 peptide (amino acids 3270-3315) (from UniProt P51587 3270-3315)
[1]
  Kd: > 96 µM

## Ex14-AAA: Ex14 with alanine mutations F2406A, P2408A, P2409A (ATRNEKMRHLITTGRPTKVAVAAFKTKSHFHRVE; left off: His6, end not stated, cleaved | MBP, end not stated, cleaved)
[2]
  protection of RAD51-ssDNA (polydT) filaments from BRC4-mediated disruption: not
DMC1-ssDNA filaments [3]
  protection of DMC1-ssDNA filaments from BRC4-mediated disruption: almost completely lost; also recorded: largely abrogated
DMC1 ΔN [4]; pH 8.0
  interaction by MST (in words): largely disrupted; also recorded: not detectable
[5]
  super-shift of DMC1 V179E-ssDNA filaments: The residual super-shift was the same
DMC1-ssDNA filaments [6]; TAE pH 7.5, 100-nt random ssDNA, 4 °C, canonical ratio of three nucleotides to one protomer, equimolar for Ex14
  stimulation of DMC1-ssDNA nucleoprotein filament formation: largely failed to stimulate filament formation
DMC1-ssDNA filaments [6]; high peptide concentrations
  stimulation of DMC1-ssDNA filament formation at high concentrations: partial stimulation; also recorded: some stimulation of filament formation
DMC1 ΔN [7]
  binding in pull-down: not
DMC1-ssDNA filaments [8]
  super-shift of pre-formed DMC1-ssDNA filaments: largely failed to stimulate or super-shift; also recorded: largely eliminated
RAD51-ssDNA filaments
  protection of RAD51-ssDNA filaments from BRC4-mediated disruption: not

## RPTKVFVPPFKTKS [Ex14-Tr]
DMC1 ΔN [4]; MST from initial fluorescence, 10 mM HEPES pH 8.0, 150 mM NaCl, 0.05 % Tween-20, ~22 °C, mean, n = 3 independent experiments
  Kd: 35.7 µM

## B1
[1]; both partners purified
  Kd: ~30 µM

## B2
[9]
  stoichiometry N: 8

## B3
[1]; both partners purified
  Kd: 36 µM

## B4
[10]
  stoichiometry N: 8

## B5
[9]
  stoichiometry N: 8

## B6
RAD51;BRCA2 Ex27
  binding result: binds
